According to patent US20210122788A1:

Columns and labels:
human BTLA Fc (human) [1] = target: human BTLA Fc (human) (UniProt Q7Z6A9); test: SPR, BTLA Fc immobilised on CM5, monovalent (Langmuir) fit
human BTLA Fc (human) [2] = target: human BTLA Fc (human) (UniProt Q7Z6A9); test: SPR, BTLA Fc immobilised on CM5, bivalent fit

Q: Which Kd (human BTLA Fc (human) [1]) does the source give for rhesus CMV UL144 Fc (Fc fusion) here?
A: Its Kd is 1300 nM.

Q: What about the koff (human BTLA Fc (human) [1]) of the same substance?
A: Its koff is 0.0295 s⁻¹.

Q: What about the kon (human BTLA Fc (human) [1]) of the same substance?
A: Its kon is 22800 M⁻¹ s⁻¹.

Q: And the ka1 (bivalent analysis) (human BTLA Fc (human) [2])?
A: Its ka1 (bivalent analysis) is 16600 M⁻¹ s⁻¹.

Q: What about the kd1 (bivalent analysis) (human BTLA Fc (human) [2]) of the same substance?
A: Its kd1 (bivalent analysis) is 0.031 s⁻¹.

Q: What about the kd2 (bivalent analysis) (human BTLA Fc (human) [2]) of the same substance?
A: Its kd2 (bivalent analysis) is 0.129 s⁻¹.
